Assay results: publication PMC4335501 (2015)

Molecular target: HAdV-52 long fiber knob (human adenovirus type 52 (HAdV-52))
Test: SPR

B1: Recombinant human CAR (CXADR Fc chimera; full length extracellular D1D2 domain) (Fc fusion)
chain: LSITTPEEMIEKAKGETAYLPCKFTLSPEDQGPLDIEWLISPADNQKVDQVIILYSGDKIYDDYYPDLKGRVHFTSNDLKSGDASINVTNLQLSDIGTYQCKVKKAPGVANKKIHLVVLVKPSGARCYVDGSEEIGSDFKIKCEPKEGSLPLQYEWQKLSDSQKMPTSWLAEMTSSVISVKNASSEYSGTYSCTVRNRVGSDQCLLRLNVVPPSNKAG
Which koff does the source give for B1 here?
The koff was 0.00221 s⁻¹.
